Assay results: IntAct's records for PubMed 10913138

B1: Protein S100-B (Homo sapiens), P04271 (parent)
chain: MSELEKAMVALIDVFHQYSGREGDKHKLKKSELKELINNELSHFLEEIKEQEVVDKVMETLDNDGDGECDFQEFMAFVAMVTTACHEFFEHE
B2: Protein S100-B (Homo sapiens), P04271 (parent)
chain: B1 chain
partner: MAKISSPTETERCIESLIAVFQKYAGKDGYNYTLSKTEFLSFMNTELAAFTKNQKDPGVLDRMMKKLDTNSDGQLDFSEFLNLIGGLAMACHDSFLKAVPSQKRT

Variants of: B1
Conditions: with S100A6, P06703

Row | effect of a mutation on the interaction | Variant
1 | decreasing interaction | MSELEKAMVALIDVFHQYSGREGDKHKLKKSELKELINNELSHFLEEIKEQEVVDKVMETLDNDGDGECDFQEFMAFVAMVTTACHEAFEHE [F88A]

Variants of: B1
Conditions: with S100A6, P06703
Remark: another data set of the same source

Row | effect of a mutation on the interaction | Variant
2 | decreasing interaction | MSELEKAMVALIDVFHQYSGREGDKHKLKKSELKELINNELSHFLEEIKEQEVVDKVMETLDNDGDGECDFQEFMAFVAMVTTACHEFAEHE [F89A]

Variants of: B2
Conditions: with S100A11, P31949

Row | effect of a mutation on the interaction | Variant
3 | decreasing interaction | MSELEKAMVALIDVFHQYSGREGDKHKLKKSELKELINNELSHFLEEIKEQEVVDKVMETLDNDGDGECDFQEFMAFVAMVTTACHEFAEHE [F89A]
